In IntAct's records for PubMed 20622900:

Target: mk03_human MAPK3 (UniProt P27361)
Sequence (P27361 whole entry): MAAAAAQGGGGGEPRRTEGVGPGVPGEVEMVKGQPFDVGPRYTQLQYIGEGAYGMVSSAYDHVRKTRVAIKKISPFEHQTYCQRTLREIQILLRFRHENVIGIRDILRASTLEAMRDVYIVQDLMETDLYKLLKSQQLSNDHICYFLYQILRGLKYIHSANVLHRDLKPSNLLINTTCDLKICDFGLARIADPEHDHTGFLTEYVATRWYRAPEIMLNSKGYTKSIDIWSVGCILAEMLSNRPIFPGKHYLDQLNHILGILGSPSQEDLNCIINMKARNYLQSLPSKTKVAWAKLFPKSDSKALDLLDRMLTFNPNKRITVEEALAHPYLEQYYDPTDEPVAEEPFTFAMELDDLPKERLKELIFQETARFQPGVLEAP

effect of a mutation on the interaction	Substance
decreasing interaction	Protein scribble homolog (Homo sapiens), Q14160 R839A;R840A
disrupting interaction	Protein scribble homolog (Homo sapiens), Q14160 K1399A;R1400A
